Results: the DeepSol protein solubility set

Test: soluble on expression in E. coli; label from the status in PepcDB or PDB records

Which “soluble on expression in E. coli” value does the source give for “SMGAEPGRPARLDQLLDMPAAGLAVQLRHAWNPEDRSLNVFVKDDDRLTFHRHPVAQSTDGIRGKVGHARGLHAWQINWPARQRGTHAVVGVATARAPLHSVGYTALVGSDAESWGWDLGRSRLYHDGKNQPGVAYPAFLGPDEAFALPDSLLVVLDMDEGTLSFIVDGQYLGVAFRGLKGKKLYPVVSAVWGHCEVTMRYINGLDPE” here?
The value was “soluble”.

With “MSSPRHVFYISDRTGLTAENIGEALLNQFGNLSFKRHTHPFVDTPEKARAVVEKVNRSRQENGQRPIAFVSVVDDEIRRIIKGADAFQINFFETFLGLLEKELNTEATASEQGHHSIGNTKRYDARMEAVNFSLNHDDGVSDKNLQEADVILMGVSRSGKTPTCLYLALQYGIRAANYPLIPDDLESADLPRMVKPYRDKLFGLTIQPERLQAIRQERRPNSTYAKIDTCRSEVADAQSMFRRHGIPFANTTDKSVEELAVHILQACKLKRRFLEHHHHHH” as the sequence, how does the “soluble on expression in E. coli” value read?
The value was “soluble”.

For “MLTQQQIDHIYDSLGCPLHFLWSYIGTAHGLSHDQADPDSFEERKKDFFFIVGKLLDDGLLKLGNRKTELIMEGNIEELVEMFRKSLPASDEEIDQEVGGLWFFTDCPFVAAWVYKGAGENGEDEYDWC”, which “soluble on expression in E. coli” value is on record?
The value was “not soluble”.

For “MSFSGVKVSPECLEAFQELKLGKSLRYVVFKMNDTKTEIVVEKKSTDKDFDTFLGDLPEKDCRYAIYDFEFNLGEGVRNKIIFISWSPDVAPIKSKMVYSSSKDTLRRAFTGIGTDIQATDFSEVAYETVLEKVTRK”, which “soluble on expression in E. coli” value is on record?
Its value is “soluble”.

Which “soluble on expression in E. coli” value does the source give for “MAEMTEMQVHEERVMNLVESSSGTPTITPLTKTNAHRAESIRRIGTDKDAVAFHFRKKSTGMYMYIHTYTENGEEKELRASDFKNWEVTEFKYPGYLEELEEIAVNAYRWNSHDPETRAETDIMGYEKQLHEDLKKIPEAKKRITSILTKVKYPFYSTASHAAQTRW” here?
The value was “not soluble”.

Which “soluble on expression in E. coli” value does the source give for “MKLKGKGIGKVVVEGEVIVSRKPLSFLGGVDPETGTITDPESDIKGESITGKILVFPKGKGSTVGSYILYALSKNGKGPKAIIVEEAEPIVTAGAIISGIPLITNVDISKLKTGMRVRINPQEGEVEILAEGNLLEHHHHHH” here?
Its value is “not soluble”.

With “MGSDKIHHHHHHMHIDIDWQNVDTVLLDMDGTLLDLAFDNYFWQKLVPETYGAQQGISPQDAQEYIRQQYHAVQHTLNWYCLDYWSERLGLDICAMTTAQGPRAVLRDDTVPFLNALKASGKRRILLTNAHPHNLAVKLEHTGLASHLDLLLSTHTFGYPKEDQRLWRAVTEETGISAEKTLFIDDSEPILDAAARFGIRYCLGVTNPDSGLAEKHYTRHPSLNDYRRLIPSLM” as the sequence, how does the “soluble on expression in E. coli” value read?
The value was “not soluble”.

Which “soluble on expression in E. coli” value does the source give for “KRATQFTASILSLYNSEQMLQKTDPMSVISSAMVAATLDLPIDKNLGYAWIVPYGGKAQFQLGYKGYIQLALRTGQYKSINCIPIHEGELQKWNPLTEEIEIDFEKRESDAVIGYAAYFELINGFRKTVYWTKAQVEKHKKKFSKSDFGWKNDWDAMALKTVLKAVLSKWGILSVEMQKAVIEEDETRERIDITNEADSSEIIDSE” here?
Its value is “soluble”.

Which “soluble on expression in E. coli” value does the source give for “GSHSLRYFYTAVSRPGLGEPRFIAVGYVDDTEFVRFDSDAENPRMEPRARWMEREGPEYWEQQTRIAKEWEQIYRVDLRTLRGYYNQSEGGSHTIQEMYGCDVGSDGSLLRGYRQDAYDGRDYIALNEDLKTWTAADFAAQITRNKWERARYAERLRAYLEGTCVEWLSRYLELGKETLLRSDPPEAHVTLHPRPEGDVTLRCWALGFYPADITLTWQLNGEDLTQDMELVETRPAGDGTFQKWASVVVPLGKEQNYTCRVEHEGLPKPLSQRWEPLLEHHHHHH” here?
Its value is “soluble”.

With “MKQVCVLGNGQLGRMLRQAGEPLGIAVWPVGLDAEPAAVPFQQSVITAEIERWPETALTRQLARHPAFVNRDVFPIIADRLTQKQLFDKLHLPTAPWQLLAERSEWPAVFDRLGELAIVKRRTGGYDGRGQWRLRANETEQLPAECYGECIVEQGINFSGEVSLVGARGFDGSTVFYPLTHNLHQDGILRTSVAFPQANAQQQARAEEMLSAIMQELGYVGVMAMECFVTPQGLLINELAPRVHNSGHWTQNGASISQFELHLRAITDLPLPQPVVNNPSVMINLIGSDVNYDWLKLPLVHLHWYDKEVRPGRKVGHLNLTDSDTSRLTATLEALIPLLPPEYASGVIWAQSKFG” as the sequence, how does the “soluble on expression in E. coli” value read?
The value was “soluble”.

With “MMFKNFPFFKGKKDTSFDHLVEEVKKGYIPEHIAIIMDGNGRWAKRRAMPRIAGHHEGMQVVKKITKFASKLNVKVLTLYAFSTENWKRPKKEVDYLMQLPEEFLGTFLPELIEENVQVRVIGQQDRLPTHTRRAMEKAMEETKENTGLILNFALNYGSRDEIVSAVQHMMKDSEEGKVRVEDVSEEMLSSYLMTSSLPDPELLIRTSGELRISNFMLWQIAYSEFWFTDVYWPDFTEEHLLNAITDFQHRGRRFGGV” as the sequence, how does the “soluble on expression in E. coli” value read?
Its value is “not soluble”.

With “SKEHREIAKKIAQKSMVLLKNENILPFTPQEKIALVGPGAQSQDILGAWSWQGKKEEAISLVAGAQKLTTNLLVAQEPFDYFEPTAAAIEEALTLASQADKVVVALGETDWMSGEAASRSDIRLPEKQLAVVAQIIEKNPNVVVTVYSGRPLDLQGIDVAKGIVQAWQPGTEGGNALAEILWGQYNPSGRLSMSFPETVGQVPIFYNVDNTGRPYESAPEEKYVSKYLDVSNYAKYPFGFGLSYSHF” as the sequence, how does the “soluble on expression in E. coli” value read?
Its value is “not soluble”.

Which “soluble on expression in E. coli” value does the source give for “MGSDKIHHHHHHMTDNQLLMQEALEWKMHFLRKDSMFERFSKRVQTKVNERIPEKIHTVVTESVKKMVEATMAGSNIITYKKDTSALSLSEKNELAKKTIVSYQKVAAAEGVGTGAGGIFLSIADFPLLLSIKMKCLFTLSSIYGFDVKDAQERIFLLLVFQLAFSSDDGRKSLFSVIENWETEKKSIDWRVFQQEYRDYIDVVKLFQLLPGVGAAVGGIANYKLLAQLGETARHVFHLRILKETAGE” here?
The value was “not soluble”.

For “SDFANLSSTNKELSPQYNWVACGILEGGLKAAGVLEEGQYNRELAEAIAAKGEGFWTTQFPQIGDWNEDQAAALADRAQTCGLVKADTYLSELSSNFSS”, which “soluble on expression in E. coli” value is on record?
The value was “soluble”.

With “MGSDKIHHHHHHMHDFLQFWLNEFSRSENPQHVNSVLTRAAATLGYEYAAYGMRRPFPISNPQILMVSNYPDRWQERYIEARFANVDSAVKAALGSDRPVTWSASTNASKSAFWAEALSFGIAHGWSSASRGADGTIGVLSLSRRQDAIDTAEKFRNESIVHWLANVAHASMAPFLPAADEFDPDLTRRETDVLKWTADGKTAYEIALILSISESTVNFHVKNIVSKLGSTNKIQAVAKAALMGML” as the sequence, how does the “soluble on expression in E. coli” value read?
The value was “not soluble”.

For “MESFQNLAKKPTLKKQIIEQAFDLKCENCGRKYDYYKFDDGSEFKHGCDCEMIEYAKQSTENYHKRNRRRKAERIFKQSIMNEDLTKATFDNYNPTNEQLVYAKNLCERYANNFTLDNKQSLLIQGSFGTGKSHLSMSIVKSVKAKGYTVLYMNVPQLISTIKNTYNNQTAMTEQELAQIISDVDLMVFDDYGINMNEFATSKMFELIESRIGKHNIFTTNLDEKEMTKNKDLQRIFSRIMSNTTLIKMDGQDYRTRGLKLLEHHHHHH”, which “soluble on expression in E. coli” value is on record?
Its value is “soluble”.

With “MRHLLDFQGWSRTEVESLLDTARVMREVLERPIKKVPALQGFTVATVFFEPSTRTRISFELAARRMSADVVSFAAQTSSLQKGESYKDTLLTLEAMGVDAYVIRADSAGVPHQATRWVKGAVINGGDGRRAHPTQALLDAYTLLEALGTLEGKKVAIVGDILHSRVARSGAELLSLLGAQVFCAGPPSLLPQSLPGAHLTPRLEEALEEADAVMVLRLQKERMEAGLVHLEDYVARYQVTEKRLALAKPQAPLLHPGPMNRDVELEGTLADSARSLVNRQVQNGVAVRMAALYHLLVGKEKA” as the sequence, how does the “soluble on expression in E. coli” value read?
The value was “soluble”.

With “GPLGSNMDAAEVEFLAEKELVTIIPNFSLDKIYLIGGDLGPFNPGLPVEVPLWLAINLKQRQKCRLLPPEWMDVEKLEKMRDHERKEETFTPMPSPYYMELTKLLLNHASDNIPKADEIRTLVKDMWDTRIAKLRVSADSFVRQQEAHAKLDNLTLMEINTSGTFLTQALNHMYKLRTNLQPLESTQSQDF” as the sequence, how does the “soluble on expression in E. coli” value read?
The value was “soluble”.
